# Experiments:
# [1] = target: TnpA^IS1535 C-terminal domain (CTD), residues 51-193 (Mycobacterium tuberculosis); test: crystal structure; TnpA^IS1535 CTD (51-193), hanging drop, 0.3 M sodium acetate pH 5.0, 1 mM TCEP mixed with 0.2 M sodium citrate + 20% PEG3350; 2.5 Å; one dimer in the asymmetric unit
# [2] = target: TnpA^IS1535 single-cysteine mutant Cys162 (three native cysteines replaced with serines) (Mycobacterium tuberculosis); test: cross-linking; disulfide cross-linking of cysteine-substituted TnpA^IS1535: oxidation with 0.2 mM diamide at 4°C overnight in 25 mM HEPES pH 7.5, 1 M Na acetate, 20% glycerol; non-reducing SDS-PAGE
Substance,stoichiometry N [1],percent disulfide-linked dimers [2] [%]
"TnpA^IS1535 C-terminal domain (CTD), residues 51-193 (domain or fragment)",2,–
TnpA^IS1535 single-cysteine mutant Cys162 (three native cysteines replaced with serines) (enzyme),–,40
